Results taken from US20240016949A1 (SHANGHAI FUDAN ZHANGJIANG BIO PHARMACEUTICAL, published 2024).
Numbering of substitutions follows the chain as printed.

T1: FcγRIIa (CD32a) (UniProt P12318 34-317, limits assumed)
T1 sequence (looked up): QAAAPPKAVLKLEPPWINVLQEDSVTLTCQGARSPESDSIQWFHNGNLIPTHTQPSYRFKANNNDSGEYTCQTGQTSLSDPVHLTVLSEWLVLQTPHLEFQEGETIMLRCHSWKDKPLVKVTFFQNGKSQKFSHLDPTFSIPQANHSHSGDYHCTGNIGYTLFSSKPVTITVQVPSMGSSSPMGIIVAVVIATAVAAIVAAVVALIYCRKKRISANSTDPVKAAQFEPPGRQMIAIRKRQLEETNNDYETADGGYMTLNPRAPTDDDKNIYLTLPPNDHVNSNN

B1: antibody-drug conjugate FDA028-LE14 (antibody, human IgG1, kappa)
light: not shown
heavy: QVQLQQWGAGLLKPSETLSLTCAVYGGSFSGYYWSWIRQPPGKGLEWIGEINHSGSTNYNPSLKSRVTISVETSKNQFSLKLSSVTAADTAVYYCARDKWTWYFDLWGRGTLVTVSSASTKGPSVFPLAPSSKSTSGGTAALGCLVKDYFPEPVTVSWNSGALTSGVHTFPAVLQSSGLYSLSSVVTVPSSSLGTQTYICNVNHKPSNTKVDKKVEPKSCDKTHTCPPCPAPPVAGGPSVFLFPPKPKDTLMISRTPEVTCVVVDVSHEDPEVKFNWYVDGVEVHNAKTKPREEQYNSTYRVVSVLTVLHQDWLNGKEYKCKVSNKALPAPIEKTISKAKGQPREPQVYTLPPSREEMTKNQVSLTCLVKGFYPSDIAVEWESNGQPENNYKTTPPVLDSDGSFFLYSKLTVDKSRWQQGNVFSCSVMHEALHNHYTQKSLSLSPGK
modifications: LE14 linker-drug as thioether on cysteines of reduced interchain disulfides; DAR 7.63 for the whole antibody
B2: antibody-drug conjugate FDA029-LE14 (antibody, human IgG1, kappa)
light: not shown
heavy: B1 heavy with P233E, V234F, A235E, P331S
modifications: LE14 linker-drug as thioether on cysteines of reduced interchain disulfides; DAR 7.82 for the whole antibody

Molecular target: T1, FcγRIIa (CD32a)
Assay: cell-based or functional assay

Binder | IC50 value (nM), killing activity on HSC Cell [nM] | IC50 value (nM), killing activity on K562 Cell [nM]
B1 | 334 | 270
B2 | 363 | 323
